To fix the notation:
B1: TTC32 (parent)
chain: YSAYIRRCACAASSDESPGSKCSP
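Also: lentivirally expressed fusions sorted by FACS into six bins by GFP to DsRed ratio, PSI derived from sequencing read proportions per bin multiplied by bin number.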

Variants of B1 are the subject of the series. The experiment in a line: protein stability index of a GFP-peptide fusion (GPS, HEK-293T) (PSI 1-6); higher = more stable. The note with it: c terminus: a fixed tail appended.
For the variant YSAYIRRCACAASSDESPLSKCSP [G19L], the protein stability index came out at 1.31.

With YSAYIRRCACAASSDESPFSKCSP [G19F], the protein stability index was 2.32.

With YSAYIGRCACAASSDESPGSKCSP [R6G], the protein stability index came to 2.53.

As for YSAYISRCACAASSDESPGSKCSP [R6S], the protein stability index was found to be 2.41.

Turning to YSAYIERCACAASSDESPGSKCSP [R6E], the protein stability index came out at 2.9.

Turning to YSAYIQRCACAASSDESPGSKCSP [R6Q], the protein stability index amounted to 2.

Take YSAYIPRCACAASSDESPGSKCSP [R6P]: the protein stability index is 2.66.

In the case of YSAYINRCACAASSDESPGSKCSP [R6N], the protein stability index worked out at 2.58.

YSAYIRRCACAASSDESPGSNCSP [K21N]: the protein stability index came out at 2.11.

Regarding YSAYIRRCACAASSDESPGSECSP [K21E], the protein stability index is 2.3.

As for YSAYIRRCACAASSDESPGSYCSP [K21Y], the protein stability index worked out at 2.8.

Turning to YSAYIRRCACAASSDESPGSTCSP [K21T], the protein stability index was 1.69.

As for YSAYIRRCACAASSDESPGSVCSP [K21V], the protein stability index is 1.62.

For the variant YSAYIRRCACAASSNESPGSKCSP [D15N], the protein stability index is 1.65.

Take YSAYIRRCACAASSKESPGSKCSP [D15K]: the protein stability index worked out at 1.81.

For YSAYIRRCACAASSIESPGSKCSP [D15I], the protein stability index came to 2.06.

Turning to YSAYIRRCACAASSCESPGSKCSP [D15C], the protein stability index stood at 2.03.

YSAYIRRCACAASSDESPGSKCSN [P24N]: the protein stability index was found to be 2.31.

Regarding YSAYIRRCACAASSDESPGSKCSD [P24D], the protein stability index was determined as 2.

As for YSAYIRRCACAASSDESPGSKCSE [P24E], the protein stability index is 2.34.

In the case of YSAYIRRCACAASSDESPGSKCSI [P24I], the protein stability index came to 2.25.

Regarding YSAYIRRCACAASSDESPGSKCSA [P24A], the protein stability index amounted to 2.03.

With YSAYIRRCACAASSDESPGSKCSY [P24Y], the protein stability index turned out to be 1.54.

For YSAYIRRCACAASSDESPGSKCSL [P24L], the protein stability index is 2.1.

On to YSAYIRRCACAASSDESPGSKCSH [P24H], for which the protein stability index turned out to be 2.54.

With YSAYIRRCACAASSDESPGSKCSK [P24K], the protein stability index is 2.03.

For the variant YQAYIRRCACAASSDESPGSKCSP [S2Q], the protein stability index was 2.02.

Consider YGAYIRRCACAASSDESPGSKCSP [S2G], for which the protein stability index was found to be 2.37.

As to YAAYIRRCACAASSDESPGSKCSP [S2A], the protein stability index came to 2.38.

With YTAYIRRCACAASSDESPGSKCSP [S2T], the protein stability index stood at 2.1.

For the variant YMAYIRRCACAASSDESPGSKCSP [S2M], the protein stability index was 1.91.

With GSAYIRRCACAASSDESPGSKCSP [Y1G], the protein stability index amounted to 2.48.

ASAYIRRCACAASSDESPGSKCSP [Y1A]: the protein stability index came to 2.62.

Regarding LSAYIRRCACAASSDESPGSKCSP [Y1L], the protein stability index turned out to be 2.61.

With HSAYIRRCACAASSDESPGSKCSP [Y1H], the protein stability index worked out at 2.65.

On to CSAYIRRCACAASSDESPGSKCSP [Y1C], for which the protein stability index turned out to be 2.04.

Regarding ESAYIRRCACAASSDESPGSKCSP [Y1E], the protein stability index worked out at 3.29.

As to NSAYIRRCACAASSDESPGSKCSP [Y1N], the protein stability index turned out to be 2.96.

For the variant RSAYIRRCACAASSDESPGSKCSP [Y1R], the protein stability index came out at 2.64.

Turning to YSAYIRRCACAASSDHSPGSKCSP [E16H], the protein stability index was found to be 2.36.

On to YSAYIRRCACAASSDLSPGSKCSP [E16L], for which the protein stability index worked out at 1.58.

Take YSAYIRRCACAASSDWSPGSKCSP [E16W]: the protein stability index turned out to be 3.48.

As to YSAYIRRCACAASSDMSPGSKCSP [E16M], the protein stability index came out at 2.42.

For the variant YSAYIRRCACAASSDQSPGSKCSP [E16Q], the protein stability index came to 2.18.

Regarding YSAYIRRCACAASSDRSPGSKCSP [E16R], the protein stability index was 1.62.

For the variant YSAYIRRCACAASSDTSPGSKCSP [E16T], the protein stability index was determined as 2.22.

Consider YSAYIRRCACAASSDISPGSKCSP [E16I], for which the protein stability index was determined as 1.82.

Turning to YSAYIRRCACAASSDCSPGSKCSP [E16C], the protein stability index is 1.83.

As for YSAYIRRCACAASSDASPGSKCSP [E16A], the protein stability index came out at 1.44.

Consider YSAYIRRCACAASSDGSPGSKCSP [E16G], for which the protein stability index was found to be 1.8.

On to YSAYMRRCACAASSDESPGSKCSP [I5M], for which the protein stability index came to 2.29.

Consider YSAYTRRCACAASSDESPGSKCSP [I5T], for which the protein stability index is 2.61.

As for YSAYHRRCACAASSDESPGSKCSP [I5H], the protein stability index came to 2.82.

On to YSAYFRRCACAASSDESPGSKCSP [I5F], for which the protein stability index was found to be 2.51.

Regarding YSAYKRRCACAASSDESPGSKCSP [I5K], the protein stability index is 2.65.

For the variant YSAYLRRCACAASSDESPGSKCSP [I5L], the protein stability index came to 2.12.

Consider YSAYIRRCACAASSDERPGSKCSP [S17R], for which the protein stability index came to 2.28.

YSAYIRRCACAASSDENPGSKCSP [S17N]: the protein stability index came out at 2.22.

YSAYIRRCACAASSDEYPGSKCSP [S17Y]: the protein stability index amounted to 1.68.

Consider YSAYIRRCACAASSDEGPGSKCSP [S17G], for which the protein stability index was 2.08.

Take YSAYIRRCACAASSDEQPGSKCSP [S17Q]: the protein stability index amounted to 1.96.

As to YSAYIRRCACAASSDEWPGSKCSP [S17W], the protein stability index was found to be 1.78.

As for YSAYIRRCACAASSDEDPGSKCSP [S17D], the protein stability index amounted to 2.05.

In the case of YSAYIRRCACAASSDEAPGSKCSP [S17A], the protein stability index is 2.17.

As to YSAYIRRCACAASSDESPGSKCYP [S23Y], the protein stability index came out at 1.5.

As for YSAYIRRCACAASSDESPGSKCTP [S23T], the protein stability index was 2.09.

For the variant YSAYIRRCACAASSDESPGSKCKP [S23K], the protein stability index came out at 2.06.

For YSAYIRECACAASSDESPGSKCSP [R7E], the protein stability index worked out at 2.81.

Take YSAYIRKCACAASSDESPGSKCSP [R7K]: the protein stability index came out at 2.23.

As to YSAYIRVCACAASSDESPGSKCSP [R7V], the protein stability index is 1.64.

Turning to YSAYIRSCACAASSDESPGSKCSP [R7S], the protein stability index came out at 2.42.

As for YSAYIRFCACAASSDESPGSKCSP [R7F], the protein stability index worked out at 2.59.

Consider YSAYIRGCACAASSDESPGSKCSP [R7G], for which the protein stability index stood at 2.7.

For YSAYIRYCACAASSDESPGSKCSP [R7Y], the protein stability index is 2.06.

As for YSAYIRMCACAASSDESPGSKCSP [R7M], the protein stability index stood at 2.14.

Regarding YSAYIRICACAASSDESPGSKCSP [R7I], the protein stability index was 1.42.

Take YSDYIRRCACAASSDESPGSKCSP [A3D]: the protein stability index worked out at 2.62.

Take YSCYIRRCACAASSDESPGSKCSP [A3C]: the protein stability index was 2.02.

Consider YSSYIRRCACAASSDESPGSKCSP [A3S], for which the protein stability index came out at 2.43.

Take YSKYIRRCACAASSDESPGSKCSP [A3K]: the protein stability index was 2.44.

Regarding YSMYIRRCACAASSDESPGSKCSP [A3M], the protein stability index came out at 2.15.

For YSQYIRRCACAASSDESPGSKCSP [A3Q], the protein stability index was 2.91.

With YSFYIRRCACAASSDESPGSKCSP [A3F], the protein stability index was found to be 1.86.

In the case of YSRYIRRCACAASSDESPGSKCSP [A3R], the protein stability index was found to be 1.89.

As for YSIYIRRCACAASSDESPGSKCSP [A3I], the protein stability index was determined as 1.51.

For the variant YSGYIRRCACAASSDESPGSKCSP [A3G], the protein stability index turned out to be 2.

Take YSNYIRRCACAASSDESPGSKCSP [A3N]: the protein stability index is 1.54.

Consider YSWYIRRCACAASSDESPGSKCSP [A3W], for which the protein stability index is 2.19.

Turning to YSAYIRRCACAAHSDESPGSKCSP [S13H], the protein stability index came out at 2.1.

Regarding YSAYIRRCACAAQSDESPGSKCSP [S13Q], the protein stability index stood at 1.96.

Take YSAYIRRCACAATSDESPGSKCSP [S13T]: the protein stability index turned out to be 2.1.

For the variant YSAYIRRCACAARSDESPGSKCSP [S13R], the protein stability index was 2.21.

For the variant YSAYIRRCACAALSDESPGSKCSP [S13L], the protein stability index was found to be 1.69.

For YSAYIRRCACAADSDESPGSKCSP [S13D], the protein stability index worked out at 2.62.

The values are drawn from the supplement of paper PMC10567573.
